This data set is described as follows: label from the status in PepcDB records.

Consider “MRKELCRNFQRGSCRYGENCRFLHPQQAKPNNPFGFGTQNQQQQQQQQQQNSSNPFGFGVQSGGSSRPNQFQNTWSRTASTPTGGGAAASTQQTGKQTQPADHKCTDPAACKRVMQDDFKNERPMWKLTCYGHWKYFPCDVTGDISYEELRAVAYEEAKRGIPLQSIVERERNLQNSKIAEFENFLRNPYKGSVTANQSPFAATTPSIFPQSSQINSPSPAFSGFNQQTAFSNTNAGGLSSSGPPNAFASFNQQTTFPNTNAGGVSSSGPPNPFASFTQQSNNQQTAFSNTNAGGLSSSGPPNAFASFNKQPNAFSVNTPQPVPSGPSGFQTNPSTTFKPASFGPGPGFATTPQNNNIFGQSTPTPATNTSQNNQTAFNFNVPVASFTAPAINTTNTSSGTELQIGGDPVDSSIWLKEKWNPGEIPEQAPPDAFV”, for which the protein production result is on record as “failed”. The value for “MRKFIISFCCYVFFIFTLAAQDKAPHYTVIVSLDAFRWDYPAMYDTPNLNQMAREGVKATMLPSYPASTFPNHYTLATGLVPDHNGIINNTFWDVKRRRQYSMGDPATRNNPDYYLGEPIWITAQKQGVKTGNVYWVGSDIAIKGGYPTYYREYAEKPRLTFEQRVDSTIALLEKPEAERPRLVMLYFEEPDGVTHHHGPRSVEAAAIIHRMDSLVGMLRQGIASLPFGKDVNLIVTADHGMTEISDDRVVDMNKYLRPEWCEAVDGRTPTSIFTKPEYRDSVYNALKDVPHIHVWKKEEIPAELNYGSSDRIGDIVVAPELGWQFTDVPRALKGAHGYFPQSPDMQVMFRACGPDFKAGYESKGFVNVDIYPLLAHLLKITPEKTDGQFERIKDILKDVSFLEHHHHHH” was “failed”; that for “MRKFILYWALYGLIELIMYVWLFQVIGFWPLLFIQIASSAFGVFIFKRLGGNLFRNLRDGRTVAPYLLDSLCFFIAGFLLIIPGVITTILGLLIFIPFSRKLLKPKLTKWLGNQKKHTQYYYFDM” was “failed”. The value for “MRKGLIRNGSYSILLVIYRWFCWAIVLIGIIPVNGVISLAYAATPADWNKGAYAYSAEQTPLSAILADFANSHGVDLVLGNIADNEVTAKIRADNPTLFLDRLALEHRFQWFVYNNALYVSPQDEQASVRLEISPDAAPDIKQALSGIGLIDSRFGWGELPEEGVVLVTGPKAYIDLIRNFSQQREKQDERRKVMIFPLRYASVSDRTLQYRDQKITIPGVATILNELMDGQRAAPAGASGPMPVQPDTGMEAMRDSTRSLMTRLATRTSPGRSGEASSRVTLSGKISADVRNNALLIRDDEKRRAEYQQLVEHIDVPQNLVNIDAIILDVDRTALSRLEANWQAQLGNVSAGSTMMMGRSTLFVSDFKRFFADIQALEGEGTASIVANPSVLTLENQPAIVDFSRTAFITATGERVADIQPVTAGTSLQVTPRVIGEGAQRSIQLVIDIEDGQVETGREGEASGVKRGTVSTQALIGENRALVLGGFHVEESGDRDRRIPILGDIPLLGKLFTSTRHEVSRRERLFILTPHLVGDQTDPTRYVSSVNRQQLNGAMNRVAQRNGKTDLYSLIEGAFRDLASRQLPAGFQADSKGARLGEVCRSQSGLIYDSSRYQWYGNGQVRLSVGVVRNGGTQPQRFDEAACASSRTLAVAVWPKTTLAPGESSEVFLALQPALTAQPTRRNVLISN” was “failed”; that for “MRKISIVIPVYNTEKYLKLSVDSVLSQSYQDWELILVDDGSKDGSGAICDKYASEDSRIKVYHTVNQGVTAARGYGVEQSTGEWICFLDADDTLADDALQVMLGKSADCDIVIGNKRIVSGNDVTEEWMNQDDRQLQAVEFLDGLIRNKISQYITGRIFRRILFDNGTICIPRELIMAEDFIMNVQLGNKAKKIAVIRDMVYGYHVYGESVSHTFRTNLEYESRFCDCLFSALKTGGYYEEVKEAFTFQKVRALKSAFMAQQGRVNLRHPFLQEVRKEAKSIGLSRGWKLFLYLLPLKYIGYIFFRSLNKLEHHHHHH” was “not failed”. To “MRKITQAISAVCLLFALNSSAVALASSPSPLNPGTNVARLAEQAPIHWVSVAQIENSLAGRPPMAVGFDIDDTVLFSSPGFWRGKKNFSPESEDYLKNPVFWEKMNNGWDEFSIPKEVARQLIDMHVRRGDAIFFVTGRSPTKTETVSKTLADNFHIPATSMNPVIFAGDKPGQNTKSQWLQDKNIRIFYGDSDNDITAARDVGARGIRILRASNSTYKPLPQAGAFGEEVIVNSEY” belongs “failed”; to “MRKKGNKLIEFVSKIMALVMAVTLLSSLPVQNVLANDSKETKGEEYEIYPIPQSIKYDNGTVTLGTDANVVFEEGIDEATKNRLLEVLSIKGINYEESNEIKEDKTNFLIGINNSEGVVDKYFTDNNLANDSHFENHDAHVVSVKGNVIAVLGKNTDSAFYGITSLKAIFNQLEGNELKELLIEDYSDGQWRGFIEGYYGIPWSNENRKDLMKFGGDFKMNSYIFAPKDDQYHSLKWREPYPAEKLAEIKEMVDVGIATKNKFIWTIHPFLKDGMNFGSEESYKADLEKIIAKFEQLYSVGVRQFGVLADDAEGEANNQVKLMEDLEKWRLQKGDVYEFIFVPKVYTKESAGGDVNNEYLKTIGTMPETIDIMWTGDVILGYVTQETFEFFEEAVGRQAFMWLNWPVNDINNKRLLMGKGEMLDPTVTNFKGIVTNPMQEAQASKVALFAIADYGWNRADFDMDKSWKDSFKYIEPDASEELYTFAKHMSDPAPNWHGLSLEESEELRPVIEEFTRKLWEKESVLDYSKVILDEYQEILDATNNFATKSKNELLKSEIKGWVDSLRDLAESTIAYINSAVAFEKGNYEEAMKYYVLGEDEYTASRSHRTPVINGQSRPEPGTRHLIPFIKDLSKIIGDNIDQVINPDTTKLTLRPYTNMSPLYWGHVQNIADGDNTRYSCMWIRNSAKEGDYVAVELNEVTKVNSITFEQGQDEGDAFNYGKFQYSMDGENWIDVDGVDYGPKMHKIVVEGLDITAKYLRFIPTKEILNNWIAVREFSVNKKDENNMKVNAYTNVEALAKNEVSISEEKATLSDLNDVTLSKGEYVGIKLNKLREVTNIVSDFTNNDNLTLETSINGVEWVEAKTLSETINARYVRIINNTEKDVTFNLNKLEAEYSNNDVNFDIRPTAEAKFEPKNLIDGKLNTAFKPLESAPKSGQLTYRISDKTDIKKFTIVQNPNTISNAIVSVRNENGWKEVGSLGKSFNEFNTEDFENVFEIKVEWDGFAPTIYEIGLSTIKEEVQVDKSKLEEAIKEVEKLKEEDYTKDSWSNLIEKLNLAKEVLSKEDATQDEVDNAIKALNEAISGLVKKDETEGPVDPEKPVDPENPDNTEKPENPEGTDKPQTPDKPEGNLPNTGGASSSIFLQLGVVMMASGAFVLKRKKR”, “failed”. As for “MRKLAAFLGLVGLLSLGLAQSAQEILDRVEKNLSTPWQATVQGRIQGPGGEEELLARVYALPQARLFRVEFLKPGSLEGNFTVITEKEVWNYLYLTNQLVISPREKAKIQGLGFAPQGLGDLKALSEQVDLRLEGEVRLPEGMAWKLVGRSKENQGFAAMELYILKADPRPLRFVFLDEKGKVLADLKVVEFKRTNLTEAQLKRYPKDAQVVRR”, the protein production result is given as “not failed”. The value for “MRKNKLSFKEKAGAEQEECLCFCEGEASREAMFQAPIELPEGFVVDPAEAVANVTWNADSLSCVSDRCLIQTGPEPDEVGVQFAVRLQGTVTLLVSVSPVRNQYGQGDGAVSVIHNAEIDQVVYYSDESDDCPDISDITIENLVVVPPFYGSPLSVTGTIVLVPEPEPVYAFTANPNDQSVSVIDTNTDTVVTTIALPYNPAGIEITPDKSAVFVLHPNNNVISVIDYDTLTVTATILLDQPPRLIRFIPNHEFAYVFTGTAVYVIGIDTLTVDRSIPVEGYDVAIDPNGLFAYVLNFGIVQKVDLTTGEVTGTIERELIVSTIETNWPERYAYVLEQEFFFNYLTVIDLNTFTISSTQELEYEGEYRMFTSGAEVYLYDGFTGNLYSVSPNGAGVIGNVPQSATDYAFTPNGDFLYATRFIEQSIIVYNTDDYSEETVISLGVSPGAITILEHHHHHH” was “not failed”. The value for “MRKRYVMTEQVQSGPRLDWLLDGLVDRIPEIRCAIVLSGDGLLIGKSKNLRRDDAEHLSAVGSGMHSLARGAARHFHGGEVQQTVIQMDRAFLFVTAAGRGARLAAIASEQVDVGMMAFEMGTLVKQVGQYLSAAPRVETPSAGHIQDA” was “failed”.

“MRKSLKMTIGIGLILSCFGLILVGIGLSSGGIDKLQVKDDQAPKKEVQFDNIQSLDLDLSVRNIKIESSQDQHFKLTYYKKLDEEISHKVQHQKLNLKQKEKFRIHFFVLSDFFNWFHQDDTNTVTLAIPKNVQLKDVSIKNNVGDITIKNQQASKITVHQNTGNLNIYNSQIAKGKVSSDVGNIAIQNSSLSNIDVVDHTGDISAENLTVLNLVRMTNNIGNTNVSLSPQSAQATIVSTKTDVGHTDISHQLLQGYSGKNRLAVKGDTGNIQIK”: the protein production result is reported as “failed”. The value for “MRKVSISILFMLVSLTWGTTWLAMRIAVETIPPVFATGMRFMFAAPFLIIIAWLRKKTLLFPPGQRLFQFVICIFYFSIPFSLMIYGETYVNSGLAAIIFANMPVAVLIASVLFLNEKAKLMQIAGLTIAITALTGILLEEANTSTESHWQGITALISAVLIHAIIYTQCKKRSCTVSVITFNALPCLLAGLILSATGWFFERPQVSTFSVHSILATLYLGAFAGVFGILCYFALQQKANAFQASLVFLIFPLIAVSLEDYIYGYAISTHSMLLIIPLAIGIFLTLVARNIPVTSRCRDNSSQE” was “failed”. Consider “MRKYLLIGVSAFVLGAGTMAYISPIAQANNAPKAQTYKLLELFGDVLGTVEDQYVTEVDDKKLIEAALDGMLTSLDPHSGYLAPDAFEDMQDTTRGEYGGLGLEVTSEEGVVKVISPMDGTPASRAGIQAGDYITAVNGQSVLGLTVNEAVKQMRGTAGEAVTLTIAREKTDPFDVKLVREVIKPKAAIARMEGDYGYVRLPGFNEKATDALASSVSELKSKNPKMKGLILDLRNNPGGLLDQAVGVADVFLDGGEVVSQRGRDPRNIQRYNARGGDMLNGLPMVVLINQGSASAAEIVAGALQDRKRAEVVGLTSFGKGSVQTVIPLRGGADGALKLTTARYFTPSGRSIQKTGIAPDLEVAQTRDQAQDIANRVWFSEASFKNALNADEGKSRVGAHTPAEAPPTGFDDKKGDFQLQRAIAVLQAGGVAKTPKLPKPAAKVAEVTAKAAAAAGGKTPVTEVK”, for which the protein production result was “failed”. The value for “MRLAFWLYEGTALHGVSRVTNSMKGVHTVYHAPQGDDYITATYTMLERTPEFPKLSISVVRGQDLARGTSRLPGTVEQVDKHYKPELIVVAPSCSTALLQEDLGQMARASGVDQSKIMVYAVNPFRVAENEAAEGLFTELVRRFAAEQPKTEKPSVNLLGFTSLGFHLRSNLTSLRRMLKTLGIEVNVVAPWGAGIDDLKKLPAAWVNIAPFREIGCQAAGYLKEKFGMPSITEAPLGVNATLRWLRAIIAEVNKIGAEKGMAPMAMPELRDFSLDGQSAPSSVPWFARTADMESFSNKRAFVFGDATQVVGVTKFLKDELGMKIIGAGTYLPKQADWVREQLEGYLPGELMVTDKFQEVSAFIEEEMPELVCGTQMERHSCRKLDVPCMVISAPTHIENHLLGYYPFFGFDGADVMADRVYTSAKLGLEKHLIDFFGDAGLEYEAEEPEAFTEPTMSGNGTVASVSSAEAPSEAAVVTATATGELSWTAEAEKMLGKVPFFVRKKVRKNTDNYAREIGEPVVTADVFRKAKEHLGGLEHHHHHH” was “failed”; that for “MRLAGVGKSCLFAGRCAGIRPRRRLRWVLHFTATVPLNSMSSRRAFLRQCGLALAAAPALSSLPPWLSSADGFTSLRGGIGTFTQRGGTIGWLATDDGIAVVDTQSPQSAPDCWNGLRERSDSPLAMVINTHHHGDHVGGNGVFARHTDRLVAHANVPELMRAGAEDGAADEKTYPTETFQDTWSEPLGDETITLRYRGPAHTGGDAIVVFENANIVHVGDLVFNRAYPFIDVGGGADSQGWIDSLETIHGALDDDTIVIHGHGNPDFGVTGGREDLLVMRDFLSALNEYVTQQRQAGASLDEMKQTKVLDGFEAFNFDWALSLADCIEAVYREQTAG” was “failed”.

The record behind these values is a protein production outcome set (Wang et al. 2014).
